Measurements published in patent US20140072582A1.

Molecular target: complement component C1q human serum (Sigma Cat#:C1740-0.5MG) (human) (UniProt P02745)
Test: ELISA, C1q coated on the plate

Sequence of UniProt P02745 (P02745 23-245 limits assumed, chain 1 of 3): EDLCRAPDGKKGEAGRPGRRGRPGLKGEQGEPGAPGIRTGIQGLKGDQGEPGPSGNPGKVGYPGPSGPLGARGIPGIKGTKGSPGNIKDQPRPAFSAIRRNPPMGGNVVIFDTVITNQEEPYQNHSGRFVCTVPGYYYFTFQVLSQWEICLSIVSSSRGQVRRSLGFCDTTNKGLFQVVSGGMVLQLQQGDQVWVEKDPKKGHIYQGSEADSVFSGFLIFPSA
Sequence of UniProt P02745 (P02746 28-253 limits assumed, chain 2 of 3, further chain): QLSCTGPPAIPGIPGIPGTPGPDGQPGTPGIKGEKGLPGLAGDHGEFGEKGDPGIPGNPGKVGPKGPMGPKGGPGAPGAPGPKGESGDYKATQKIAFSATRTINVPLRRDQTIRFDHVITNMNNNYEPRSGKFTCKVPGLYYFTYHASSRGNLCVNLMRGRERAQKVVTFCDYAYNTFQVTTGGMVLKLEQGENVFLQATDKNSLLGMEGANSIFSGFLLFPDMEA
Sequence of UniProt P02745 (P02747 29-245 limits assumed, chain 3 of 3, further chain): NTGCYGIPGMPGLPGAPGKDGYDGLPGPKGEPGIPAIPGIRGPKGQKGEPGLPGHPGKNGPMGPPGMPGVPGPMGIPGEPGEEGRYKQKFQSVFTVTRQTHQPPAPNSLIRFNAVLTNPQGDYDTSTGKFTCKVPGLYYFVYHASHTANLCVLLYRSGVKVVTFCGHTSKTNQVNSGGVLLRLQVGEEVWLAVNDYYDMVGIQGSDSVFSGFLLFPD

EC50 [µg/mL]	Substance
34.5	GB4500 (Rituximab), anti-CD20 monoclonal antibody
202	GB7500 (Adalimumab), anti-TNF monoclonal antibody
